From paper PMC5794981

Target: aflibercept (Eylea) (human)
Experiment: SEC; Superdex 200 Increase 10/300 GL, aflibercept diluted in PBS to 8 mg/ml, 77 ul injected, 25 °C; samples stored 0, 7 or 28 days

Chain of aflibercept (Eylea) (Fc fusion) (chain): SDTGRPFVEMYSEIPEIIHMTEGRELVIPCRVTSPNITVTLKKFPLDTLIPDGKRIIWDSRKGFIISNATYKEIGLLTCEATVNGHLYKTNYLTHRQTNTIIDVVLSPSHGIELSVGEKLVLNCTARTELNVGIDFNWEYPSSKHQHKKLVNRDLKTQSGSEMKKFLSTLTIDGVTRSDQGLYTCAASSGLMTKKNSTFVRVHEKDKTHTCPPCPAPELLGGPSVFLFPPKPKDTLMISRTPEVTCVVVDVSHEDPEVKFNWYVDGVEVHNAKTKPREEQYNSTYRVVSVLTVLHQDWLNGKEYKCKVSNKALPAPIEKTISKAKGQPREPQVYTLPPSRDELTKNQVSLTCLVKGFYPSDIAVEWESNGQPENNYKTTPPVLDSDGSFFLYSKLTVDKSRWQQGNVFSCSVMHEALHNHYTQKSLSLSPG

aflibercept (Eylea) (Fc fusion)
stoichiometry N: 2
